In patent US20210032351A1 (XDCEXPLORER SHANGHAI, published 2021) one finds binding result and OD450 nm data, which are given here for one molecule.

Ends that are not written are not given here. * marks the point of attachment. Biotin = O=C1N[C@H]2[C@H](CS[C@H]2CCCCC(=O)*)N1

One assay deals with T1, pep24 (cysteine pairing not given here).
T1 peptide: SYEMEEDGVRKCKKCEK(Biotin)
Description: polypeptide dot matrix ELISA.

The next assay concerns the target T2, pep29 (cysteine pairing not given here).
T2 peptide: EDGVRKCKKCEGPCRKK(Biotin)
Kind of assay: polypeptide dot matrix ELISA.

The target in another assay is T3, pep30 (cysteine pairing not given here).
T3 peptide: DGVRKCKKCEGPCRKVK(Biotin)
Description: polypeptide dot matrix ELISA. (In general: In an ELISA, binding on a coated surface is turned into a signal by an enzyme label.)

Another assay has as its target T4, pep31 (cysteine pairing not given here).
T4 peptide: GVRKCKKCEGPCRKVCK(Biotin)
Description: polypeptide dot matrix ELISA.

Another assay deals with T5, pep32 (cysteine pairing not given here).
T5 peptide: VRKCKKCEGPCRKVCNK(Biotin)
Kind of assay: polypeptide dot matrix ELISA.

In a further assay the target is T6, pep03.
T6 peptide: EKKGNYVVTDHGSCVRK(Biotin)
Kind of assay: polypeptide dot matrix ELISA.

A further assay has as its target T7, pep04.
T7 peptide: KKGNYVVTDHGSCVRAK(Biotin)
Kind of assay: polypeptide dot matrix ELISA.

Another assay concerns the target T8, pep06 (cysteine pairing not given here).
T8 peptide: GNYVVTDHGSCVRACGK(Biotin)
Description: polypeptide dot matrix ELISA.

In another assay the target is T9, pep07 (cysteine pairing not given here).
T9 peptide: NYVVTDHGSCVRACGAK(Biotin)
Description: polypeptide dot matrix ELISA.

A further assay has as its target T10, pep11 (cysteine pairing not given here).
T10 peptide: TDHGSCVRACGADSYEK(Biotin)
Kind of assay: polypeptide dot matrix ELISA.

The next assay has as its target T11, pep12 (cysteine pairing not given here).
T11 peptide: DHGSCVRACGADSYEMK(Biotin)
Description: polypeptide dot matrix ELISA.

Another assay addresses T12, pep14 (cysteine pairing not given here).
T12 peptide: GSCVRACGADSYEMEEK(Biotin)
Kind of assay: polypeptide dot matrix ELISA.

The target of another assay is T13, pep17.
T13 peptide: VRACGADSYEMEEDGVK(Biotin)
Description: polypeptide dot matrix ELISA.

For another assay, the target named is T14, pep19.
T14 peptide: ACGADSYEMEEDGVRKK(Biotin)
Description: polypeptide dot matrix ELISA.

The target in another assay is T15, pep22.
T15 peptide: ADSYEMEEDGVRKCKKK(Biotin)
Kind of assay: polypeptide dot matrix ELISA.

The target of a further assay is T16, pep23 (cysteine pairing not given here).
T16 peptide: DSYEMEEDGVRKCKKCK(Biotin)
Description: polypeptide dot matrix ELISA.

Assay [1] has as its target T17, human EGFRvIII-hFc protein (human, UniProt P00533 25-645).
T17 construct: extracellular domain; made in HEK293 cells, purified on protein A; also called immunogen A; hFc-tagged EGFRvIII protein; not shown: human IgG Fc fragment (hFc) of the pCpC vector
Description: ELISA, coated EGFRvIII-hFc, antibody 100 nM. The gist of the method: (§1)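 Plates coated overnight at 4° C with EGFRvIII-hFc at 1.0 μg/mL, blocked with 1% BSA, then incubated with purified anti-EGFRvIII antibody 2 h at 37° C. Bound antibody detected with HRP secondary (2 h, 37° C) and TMB for 30 min, HCl-stopped, read at A450.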

The target in assay [2] is T17, human EGFRvIII-hFc protein. Kind of assay: ELISA, coated EGFRvIII-hFc, antibody 0.001 nM. The gist of the method:
as §1

B1: Murine anti-75G7 (antibody, V domains shown)
VH: EVQLQQSGPELVKPGASVKIPCKASGYTFTDYNMDWVKQSHGKSLEWIGDINPNNGDTIYNQKFKGKATLTVDKSSSTAYMELRSLTSEDTAVYYCARGDYDGYYPVYYAMDYWGQGTSVTVSS
VL: ENVLTQSPAIMSASPGEKVTMTCRASSSVSSSYLHWYQQKSGASPKLWIFSTSNLAAGVPARFSGSGSGTSYSLTVSSVEAEDAATYYCQQYSGYPLTFGAGTKLELK
notes: murine hybridoma antibody; also called 75G7C6
As for B1, the binding result with pep24, with pep29, with pep30, in the assay with pep31, with pep32 and in the assay with pep03 was “no binding” each time. Further, the binding result with pep04, with pep06, with pep07, with pep11, with pep12 and in the assay with pep14 was “no binding” in each case. Besides, the binding result with pep17, with pep19, in the assay with pep22 and with pep23 was “no binding” each time. In addition, the OD450 nm in assay [1] turned out to be 0.56; in [2], 0.07.
